Molecular target: the molecule itself
Test: hydrogel formation (visual inspection, rheology); purified peptide dissolved in Millipore water at 0.5% or 1% (w/v); room temperature; gel seen at once (1%) or after overnight incubation (0.5%); rheology after 24 h; the analogue was followed for 72 h

B1: OVA257-264 octapeptide SIINFEKL (peptide)
peptide: SIINFEKL
notes: ovalbumin (OVA), residues 257-264; Assembles into nanofibrils and a hydrogel; the number of peptides in an assembly is not defined; source: synthetic peptide (Fmoc-SPPS, purified by RP-HPLC)
Does B1 bind?
Result: binds
